Patent publication US11260115B1, “Peptides and combination of peptides for use in immunotherapy against CLL and other cancers” (immatics biotechnologies GmbH, priority 2015, dated 2022)

How the values were obtained:
HLA-A*02:01 = HLA-A*02:01 (Homo sapiens, UniProt P04439, D140Y/D185E/D98H/E176V/E277Q/G131W/G231S/I119V/I121R/I166T/I218V/L300P/L318F/N151K/N90K/P208A/P217A/Q86G/Q94H/R138H/R169H/T345S); experiment: MHC binding assay (UV-ligand exchange, β2m ELISA, peptide exchange yield); conditions: binding to HLA-A*02:01
In short: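 Peptide-HLA-A*02:01 complexes formed by UV-mediated exchange of a photocleavable ligand; exchange yield measured by streptavidin-capture ELISA detecting β2m with HRP anti-β2m, TMB read at 450 nm. Refolded monomer standards 15-500 ng/ml; samples diluted 100-fold.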

CD8+ T cells = experiment: In vitro immunogenicity: T-cell priming with aAPCs loaded with peptide/MHC and anti-CD28, pMHC multimer readout; format: cell-based, human; conditions: HLA-A*02 restricted peptides, percentage of positive wells among evaluable
Procedure: FIGS. 3A-3F describe simulation graphs of various peptides of the present disclosure. […] CD8+ T cells were primed using artificial APCs coated with anti-CD28 mAb and HLA-A*02 in complex with SeqID No 1 peptide (FIG. 3C, left panel), SeqID No 5 peptide (FIG. 3D left panel), SeqID No 32 peptide (FIG. 3E, left panel) and SeqID No 220 peptide (FIG. 3F, left panel), respectively. After three cycles of stimulation, the detection of peptide-reactive cells was performed by 2D multimer staining with A*02/SeqID No 1 (FIG. 3C), A*02/SeqID No 5 (D), A*02/SeqID No 32 (FIG. 3E) or A*02/SeqID No 220 (FIG. 3F). Right panels (FIGS. 3C, 3D, 3E and 3F) show control staining of cells stimulated with irrelevant A*02/peptide complexes. Viable singlet cells were gated for CD8+ lymphocytes. Boolean gates helped excluding false-positive events detected with multimers specific for different peptides.
In order to obtain information regarding the immunogenicity of the TUMAPs of the present invention, the inventors performed investigations using an in vitro T-cell priming assay based on repeated stimulations of CD8+ T cells with artificial antigen presenting cells (aAPCs) loaded with peptide/MHC complexes and anti-CD28 antibody.
In order to perform in vitro stimulations by artificial antigen presenting cells loaded with peptide-MHC complex (pMHC) and anti-CD28 antibody, the inventors first isolated CD8+ T cells from fresh HLA-A*02 leukapheresis products via positive selection using CD8 microbeads (Miltenyi Biotec, Bergisch-Gladbach, Germany) of healthy donors obtained from the University clinics Mannheim, Germany, after informed consent.
PBMCs and isolated CD8+ lymphocytes were incubated in T-cell medium (TCM) until use consisting of RPMI-Glutamax (Invitrogen, Karlsruhe, Germany) supplemented with 10% heat inactivated human AB serum (PAN-Biotech, Aidenbach, Germany), 100 U/ml Penicillin/100 μg/ml Streptomycin (Cambrex, Cologne, Germany), 1 mM sodium pyruvate (CC Pro, Oberdorla, Germany), 20 μg/ml Gentamycin (Cambrex). 2.5 ng/ml IL-7 (PromoCell, Heidelberg, Germany) and 10 U/ml IL-2 (Novartis Pharma, Nümberg, Germany) were also added to the TCM at this step.
Generation of pMHC/anti-CD28 coated beads, T-cell stimulations and readout was performed in a highly defined in vitro system using four different pMHC molecules per stimulation condition and 8 different pMHC molecules per readout condition.
The purified co-stimulatory mouse IgG2a anti human CD28 Ab 9.3 (Jung et al., 1987) was chemically biotinylated using Sulfo-N-hydroxysuccinimidobiotin as recommended by the manufacturer (Perbio, Bonn, Germany). Beads used were 5.6 μm diameter streptavidin coated polystyrene particles (Bangs Laboratories, Illinois, USA).
800.000 beads/200 μl were coated in 96-well plates in the presence of 4×12.5 ng different biotin-pMHC, washed and 600 ng biotin anti-CD28 were added subsequently in a volume of 200 μl. Stimulations were initiated in 96-well plates by co-incubating 1×10^6 CD8+ T cells with 2×10^6 washed coated beads in 200 μl TCM supplemented with 5 ng/ml IL-12 (PromoCell) for 3 days at 37° C. Half of the medium was then exchanged by fresh TCM supplemented with 80 U/ml IL-2 and incubating was continued for 4 days at 37° C. This stimulation cycle was performed for a total of three times. For the pMHC multimer readout using 8 different pMHC molecules per condition, a two-dimensional combinatorial coding approach was used as previously described (Andersen et al., 2012) with minor modifications encompassing coupling to 5 different fluorochromes. Finally, multimeric analyses were performed by staining the cells with Live/dead near IR dye (Invitrogen, Karlsruhe, Germany), CD8-FITC antibody clone SK1 (BD, Heidelberg, Germany) and fluorescent pMHC multimers. For analysis, a BD LSRII SORP cytometer equipped with appropriate lasers and filters was used.

Row | Substance | Peptide Exchange (MHC class I binding score, peptide exchange yield) (HLA-A*02:01) | Wells positive [%] (CD8+ T cells)
1 | 2 (ALHRPDVYL; listed as Homo sapiens) [compound 2] | “+++” (>50 = +++) | “+” (<20% = +)
2 | 17 (ALTKTNLQL; listed as Homo sapiens) [compound 17] | “+++” (>50 = +++) | “+” (<20% = +)
3 | 26 (AVLLVLPLV; listed as Homo sapiens) [compound 26] | “+++” (>50 = +++) | “+” (<20% = +)
4 | 32 (FIDKFTPPV; listed as Homo sapiens) [compound 32] | “++++” (>75% = ++++) | “++++” (>=70% = ++++)
5 | 54 (FLYPFPLALF; listed as Homo sapiens) [compound 54] | “+++” (>50 = +++) | “+” (<20% = +)
6 | 57 (GLSEISLRL; listed as Homo sapiens) [compound 57] | “++++” (>75% = ++++) | “+” (<20% = +)
7 | 69 (GLHQREIFL; listed as Homo sapiens) [compound 69] | “+++” (>50 = +++) | “+” (<20% = +)
8 | 81 (WLVGQEFEL; listed as Homo sapiens) [compound 81] | “+++” (>50 = +++) | “+” (<20% = +)
9 | 86 (HLYPGAVTI; listed as Homo sapiens) [compound 86] | “+++” (>50 = +++) | “+” (<20% = +)
10 | 96 (ILIDKTSFV; listed as Homo sapiens) [compound 96] | “+++” (>50 = +++) | “+” (<20% = +)
11 | 101 (ILVVIEPLL; listed as Homo sapiens) [compound 101] | “++++” (>75% = ++++) | “+” (<20% = +)
12 | 102 (IQDRAVPSL; listed as Homo sapiens) [compound 102] | “++” (>20% = ++) | “+” (<20% = +)
13 | 112 (KTLDVDATYEI; listed as Homo sapiens) [compound 112] | “+++” (>50 = +++) | “+” (<20% = +)
14 | 114 (LIPEGPPQV; listed as Homo sapiens) [compound 114] | “+++” (>50 = +++) | “+” (<20% = +)
15 | 154 (SLLAELHVLTV; listed as Homo sapiens) [compound 154] | “++++” (>75% = ++++) | “+” (<20% = +)
16 | 192 (YIQEYLTLL; listed as Homo sapiens) [compound 192] | “+++” (>50 = +++) | “+” (<20% = +)
17 | 197 (YLQEVPILTL; listed as Homo sapiens) [compound 197] | “++++” (>75% = ++++) | “+” (<20% = +)
18 | 200 (YMFEEVPIVI; listed as Homo sapiens) [compound 200] | “++++” (>75% = ++++) | “+” (<20% = +)
19 | 201 (YQLELHGIEL; listed as Homo sapiens) [compound 201] | “++++” (>75% = ++++) | “+” (<20% = +)
20 | 240 (ILARDILEI; listed as Homo sapiens) [compound 240] | “+++” (>50 = +++) | “+” (<20% = +)
21 | 281 (NLLDDRGMTAL; listed as Homo sapiens) [compound 281] | “+++” (>50 = +++) | “+” (<20% = +)
22 | 307 (LLLTKPTEA; listed as Homo sapiens) [compound 307] | “+++” (>50 = +++) | “+” (<20% = +)
23 | 320 (TIAPVTVAV; listed as Homo sapiens) [compound 320] | “++++” (>75% = ++++) | “+” (<20% = +)
24 | 322 (SLASIHVPL; listed as Homo sapiens) [compound 322] | “+++” (>50 = +++) | “+” (<20% = +)
25 | 323 (SLDLFNCEV; listed as Homo sapiens) [compound 323] | “++++” (>75% = ++++) | “+” (<20% = +)
26 | 332 (VMIQHVENL; listed as Homo sapiens) [compound 332] | “+++” (>50 = +++) | “+” (<20% = +)
27 | 380 (YLDRKLLTL; listed as Homo sapiens) [compound 380] | “+++” (>50 = +++) | “++++” (>=70% = ++++)
